# B1: MLH1 (parent)
# chain: YAHQMVRTDSREQKLDAFLQPLSK
# Variants of: B1
# Experiment: protein stability index of a GFP-peptide fusion (GPS, HEK-293T) (PSI 1-6); higher = more stable
# Settings: c terminus: a fixed tail appended
# 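Note: lentivirally expressed fusions sorted by FACS into six bins by GFP to DsRed ratio, PSI derived from sequencing read proportions per bin multiplied by bin number.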
row,Variant,protein stability index
1,YAHQMVRTDSREQFLDAFLQPLSK [K14F],2
2,YAHQMVRTDSREQDLDAFLQPLSK [K14D],2.46
3,YAHQMVRTDSREQALDAFLQPLSK [K14A],2.84
4,YAHQMVRTDSREQCLDAFLQPLSK [K14C],2.08
5,YAHQMVRTDSREQILDAFLQPLSK [K14I],2.43
6,YAHQMVRTDSREQNLDAFLQPLSK [K14N],2.48
7,YAHQMMRTDSREQKLDAFLQPLSK [V6M],2.29
8,YAHQMSRTDSREQKLDAFLQPLSK [V6S],2.97
9,YAHQMIRTDSREQKLDAFLQPLSK [V6I],2.43
10,YAHQMDRTDSREQKLDAFLQPLSK [V6D],3.03
11,YAHQMYRTDSREQKLDAFLQPLSK [V6Y],2.42
12,YAHQMQRTDSREQKLDAFLQPLSK [V6Q],2.71
13,YAHQMFRTDSREQKLDAFLQPLSK [V6F],2.19
14,YAHQMVRTDSREQKLDAFLQPDSK [L22D],3.38
15,YAHQMVRTDSREQKLDAFLQPYSK [L22Y],2.03
16,YAHQMVRTDSREQKLDAFLQPKSK [L22K],2.98
17,YAHQMVRTDSREQKLDAFLQPPSK [L22P],2.06
18,YAHQMVRTDSREQKLDAFLQPESK [L22E],3.02
19,YAHQMVRTDSREQKLDAFLQPNSK [L22N],3.11
20,YAHQMVRTDSREQKLDAFLQPSSK [L22S],3.14
21,YAHQMVRTDSREQKLDAFLQPCSK [L22C],2.59
22,YAHQMVRTDSREQKLDAFLQPRSK [L22R],3.02
23,YAHQMVRTDSREQKLDAFLQKLSK [P21K],2.42
24,YAHQMVRTDSREQKLDAFLQTLSK [P21T],2.21

row,Variant,protein stability index
1,YAHQMVRTDSREQKLDAFLQLLSK [P21L],2.16
2,YAHQMVRTDSREQKLDAFLQDLSK [P21D],2.84
3,YAHQMVRTDSREQKLDAFLQYLSK [P21Y],1.71
4,YAHQMVRTDSREQKLDAFLQILSK [P21I],2.57
5,YAHQMVRTDSREQKLDAFLQCLSK [P21C],2.2
6,YAHQMVRTDSREQKLDAFLQNLSK [P21N],2.4
7,YAHQMVRTDSREQKLDAFLQWLSK [P21W],2.4
8,YAHQMVRTDSREQKLDAFLQSLSK [P21S],3
9,YAHQMVRTDSREQKLDAFLQQLSK [P21Q],2.7
10,YAHQMVRTDSREQKLDAFLQVLSK [P21V],2.48
11,YAHQMVRTDSWEQKLDAFLQPLSK [R11W],1.33
12,YAHQMVRTDSPEQKLDAFLQPLSK [R11P],2.46
13,YAHQMVRTDSCEQKLDAFLQPLSK [R11C],2.59
14,YAHQMVRTDSQEQKLDAFLQPLSK [R11Q],2.84
15,YAHQMVRTDSIEQKLDAFLQPLSK [R11I],2.1
16,YAHQMVRTDSFEQKLDAFLQPLSK [R11F],2.51
17,YAHQMVRTDSLEQKLDAFLQPLSK [R11L],1.95
18,YRHQMVRTDSREQKLDAFLQPLSK [A2R],3.12
19,YCHQMVRTDSREQKLDAFLQPLSK [A2C],2.09
20,YMHQMVRTDSREQKLDAFLQPLSK [A2M],3.12
21,YYHQMVRTDSREQKLDAFLQPLSK [A2Y],2.39
22,YSHQMVRTDSREQKLDAFLQPLSK [A2S],2.82
23,YHHQMVRTDSREQKLDAFLQPLSK [A2H],1.8
24,YVHQMVRTDSREQKLDAFLQPLSK [A2V],1.93

row,Variant,protein stability index
1,YGHQMVRTDSREQKLDAFLQPLSK [A2G],3.19
2,YAHQMVRTDSREQKLDAFNQPLSK [L19N],2.85
3,YAHQMVRTDSREQKLDAFTQPLSK [L19T],3.02
4,YAHQMVRTDSREQKLDAFIQPLSK [L19I],2.21
5,YAHQMVRTDSREQKLDAFVQPLSK [L19V],2.84
6,YAHQMVRTDSREQKLDAFRQPLSK [L19R],3.33
7,YAHQMVRTDSREQKLDAFEQPLSK [L19E],3.38
8,YAHQMVRTDSREQKLDAFQQPLSK [L19Q],3.02
9,YAHQMVRTDSREQKIDAFLQPLSK [L15I],2.17
10,YAHQMVRTDSREQKEDAFLQPLSK [L15E],3.83
11,YAHQMVRTDSREQKDDAFLQPLSK [L15D],3.25
12,YAHQMVRTDSREQKFDAFLQPLSK [L15F],2.2
13,YAHQMVRTDSREQKGDAFLQPLSK [L15G],3.28
14,YAHQMVRTDSREQKNDAFLQPLSK [L15N],3.28
15,KAHQMVRTDSREQKLDAFLQPLSK [Y1K],3.88
16,HAHQMVRTDSREQKLDAFLQPLSK [Y1H],3.6
17,QAHQMVRTDSREQKLDAFLQPLSK [Y1Q],3.97
18,DAHQMVRTDSREQKLDAFLQPLSK [Y1D],4.12
19,NAHQMVRTDSREQKLDAFLQPLSK [Y1N],2.95
20,SAHQMVRTDSREQKLDAFLQPLSK [Y1S],3.88
21,CAHQMVRTDSREQKLDAFLQPLSK [Y1C],1.59
22,WAHQMVRTDSREQKLDAFLQPLSK [Y1W],2.66
23,FAHQMVRTDSREQKLDAFLQPLSK [Y1F],2.12
24,AAHQMVRTDSREQKLDAFLQPLSK [Y1A],3.48

row,Variant,protein stability index
1,YACQMVRTDSREQKLDAFLQPLSK [H3C],2.01
2,YALQMVRTDSREQKLDAFLQPLSK [H3L],2.19
3,YAIQMVRTDSREQKLDAFLQPLSK [H3I],2.5
4,YAYQMVRTDSREQKLDAFLQPLSK [H3Y],2
5,YAFQMVRTDSREQKLDAFLQPLSK [H3F],2.19
6,YAHQMVRTDSRWQKLDAFLQPLSK [E12W],1.6
7,YAHQMVRTDSRSQKLDAFLQPLSK [E12S],2.32
8,YAHQMVRTDSRYQKLDAFLQPLSK [E12Y],1.98
9,YAHQMVRTDSRGQKLDAFLQPLSK [E12G],2.2
10,YAHQMVRTDSRVQKLDAFLQPLSK [E12V],2.42
11,YAHQMVRTDSRIQKLDAFLQPLSK [E12I],1.82
12,YAHQMVRTDSRNQKLDAFLQPLSK [E12N],2.37
13,YAHQMVRTDSRRQKLDAFLQPLSK [E12R],2.53
14,YAHQMVRTDSRDQKLDAFLQPLSK [E12D],3.18
15,YAHQMVRTDSRMQKLDAFLQPLSK [E12M],1.87
16,YAHQMVRTDSREQKLDAFLQPLHK [S23H],2.01
17,YAHQMVRTDSREQKLDAFLQPLGK [S23G],3.24
18,YAHQMVRTDSREQKLDAFLQPLNK [S23N],2.42
19,YAHQMVRTDSREQKLDAFLQPLQK [S23Q],2.7
20,YAHQMVRTDSREQKLDAFLQPLFK [S23F],2.4
21,YAHQMVRTDSREQKLDAFLQPLWK [S23W],2.27
22,YAHQMVRTDSREQKLDAFLQPLDK [S23D],3.41

# Source: the supplement of paper PMC10567573
